# Laboratory results as given in the supplement of paper PMC10126150.
# ± gives the standard deviation of the averaged measurements.
# Tested on: ATP
# Assay: switch fluorescence ratio, 500 uM ATP over buffer (Cy3 cluster intensity, sum of 5 cycles each) (fold (ratio)); higher = stronger signal-on switching upon ATP binding; sequences stand for … in TCGTCGGCAGCGTCAGATGTGTATAAGAGACAGTTTTTTTTTTTTTTTTTTTTTTTTT…TC
# Settings: aptamer strand: ATP DNA aptamer (quencher-CACCTGGGGGAGTATTGCGGAGGAAGG + anchor), 100 nM annealed; ATP concentration: 500 uM
# Method in brief: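 Exposure to 500 uM ATP lasted 15 min at 22 °C before imaging, and a selection-buffer image was taken beforehand, for Cy3-labelled switching-strand clusters on a modified Illumina MiSeq flow-cell annealed to 100 nM quencher-labelled ATP aptamer. Five buffer/ATP cycles were run with NaOH stripping and re-annealing between them. The fluorescence ratio per cluster is summed target-cycle over summed buffer-cycle Cy3 intensity, averaged per switch-domain sequence. Clusters outside 100-1000 RFU were excluded.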
row,Sequence,switch fluorescence ratio
1,CGAACGGTTG,1.0261 ± 1.1e-05
2,AGGGGATTTG,0.999 ± 0.03
3,TCTACGGCGT,0.9991 ± 0.0059
4,GTTCTAGGTT,0.9961 ± 0.0044
5,AAAGCAGTTT,1.05 ± 0.022
6,TGTGTCAGCT,0.9981 ± 0.0041
7,GATGCTCGAA,0.989 ± 0.025
8,CATCGATTGT,1 ± 0.019
9,GTTTTTAGAA,0.994 ± 0.031
10,TTTATTGGCG,1.01 ± 0.035
11,TTCCTGAAAA,0.981 ± 0.016
12,ATAGGGATAG,1.01 ± 0.047
13,AAAAGCTTTT,0.988 ± 0.034
14,AAGATTGGTG,0.991 ± 0.041
15,AGGGGCGGTC,1.03 ± 0.014
16,GGGGACAGGG,1.01 ± 0.051
17,TAAAAAGGGA,1.02 ± 0.02
18,TAGGGGAGGT,1.01 ± 0.016
19,TTTTGGTTCG,0.987 ± 0.032
20,CTGGAAGGGG,1.04 ± 0.024
21,GGTTTAATAG,0.986 ± 0.026
22,ATATTTAATC,0.999 ± 0.0079
23,CGGACAGGGA,1.03 ± 0.035

row,Sequence,switch fluorescence ratio
1,GGAGTCGGGG,1 ± 0.012
2,AATCATATGG,0.969 ± 0.057
3,ACATCCTTCG,1.7 ± 0.25
4,GTTGTGTATT,0.998 ± 0.022
5,CAATAGACGG,1.04 ± 0.046
6,GGGGATGAGA,0.986 ± 0.01
7,GAGTCATGTG,1.01 ± 0.037
8,ATAGGGGGGC,1.01 ± 0.074
9,CCAGTGAATA,1.06 ± 0.021
10,GGGGGTATCA,0.98049 ± 0.00015
11,GAAGGGAGGT,0.987 ± 0.012
12,GTTTAAAACG,0.9961 ± 0.0073
13,ATGGGGTTGG,1 ± 0.049
14,ATTTTTGTTT,0.985 ± 0.023
15,GGGTTAGGGC,0.988 ± 0.023
16,ACGGACTTTG,0.941 ± 0.063
17,CGCGTACGGA,0.989 ± 0.005
18,CGAGCCCTTG,1.027 ± 0.0065
19,TGAAGATGGG,1 ± 0.019
20,GATGTCACGA,1.03 ± 0.028
21,TTACGGTAAC,2.05 ± 1.1
22,ACATGCGGGG,1.019 ± 0.01
23,CGTTGTAAAT,0.9823 ± 0.0071

row,Sequence,switch fluorescence ratio
1,ATCTAGGGGG,1.05 ± 0.017
2,TGTGAGGGGT,0.994 ± 0.033
3,TTAGGTTGTA,0.974 ± 0.025
4,GTAATAATGG,0.988 ± 0.053
5,ACGCGGGGGG,1.02 ± 0.029
6,ACTCAAAACG,1.11 ± 0.09
7,GCGTTCGTGG,1.02 ± 0.027
8,ATGGACTCCT,1.04 ± 0.044
9,GCGGAAAGGG,0.992 ± 0.021
10,TCTTACAATT,0.971 ± 0.036
11,ATCATGCTTC,0.994 ± 0.025
12,ACGGGCTAAC,1.09 ± 0.14
13,GGTCCAGGGC,1.08 ± 0.04
14,CAGTTGGATT,1.01 ± 0.04
15,GAGGGCAGGG,0.978 ± 0.034
16,CATTAGGGCT,0.978 ± 0.015
17,GCTGGGTTGG,1 ± 0.026
18,GAGCAGGGCC,0.982 ± 0.046
19,GCCTAATTGA,0.98434 ± 0.00034
20,GATTCATTAG,0.9925 ± 0.0015
21,GCGTGGGGGG,1 ± 0.016
22,ATGTTAGTAC,1.03 ± 0.058
23,ACGGTGGACT,1 ± 0.035

row,Sequence,switch fluorescence ratio
1,AATGCTGGTG,1.075 ± 0.01
2,AGTTGCGTTA,0.963 ± 0.025
3,TTGTTTTGTT,1.04 ± 0.1
4,TTTGCGGGAC,1.57 ± 0.47
5,TACATTTATA,1.02 ± 0.019
6,TTAGGCAGTA,1.01 ± 0.067
7,AGTAGGGTGC,1.07 ± 0.12
8,CGGTCTTACT,1.02 ± 0.02
9,TTAGTCCACT,1.0047 ± 0.001
10,TCCCCATGGT,2.07 ± 0.068
11,CCTTAGTGAC,1.36 ± 0.069
12,CTCTACTCAA,1.37 ± 0.031
13,GTTATACGGT,0.997 ± 0.057
14,AGCCAGATTC,0.975 ± 0.036
15,TTTATACTCT,1.08 ± 0.026
16,GTTGAGGAGG,0.9891 ± 0.0086
17,TTTAGCAGCT,0.993 ± 0.014
18,GCTACCAAGC,1.07 ± 0.025
19,CGTATTTAGA,0.99 ± 0.064
20,GGTGCGGCTT,1.007 ± 0.0072
21,ACGTAGGGGT,1.21 ± 0.27
22,ACTAGGATTC,0.986 ± 0.0028
23,AGGGTGTTTG,1.01 ± 0.019

row,Sequence,switch fluorescence ratio
1,TAGAGTCGTG,0.981 ± 0.027
2,TTGTATTGGA,0.995 ± 0.015
3,GTGCAAGGCG,0.988 ± 0.032
4,TTGGATGTGA,0.9622 ± 0.0052
5,GCTTTGGATA,1.04 ± 0.055
6,ACGGGGCATC,1.07 ± 0.013
7,GCCGTATGCG,0.992 ± 0.019
8,AGAGAATGCG,1.02 ± 0.049
9,TTTGTAGTGT,0.999 ± 0.026
10,TTCAGAGGGG,0.997 ± 0.033
11,GTCGCTTAGT,0.973 ± 0.018
12,TAGTGGGCGA,1.01 ± 0.067
13,GCCACAAATT,1.01 ± 0.033
14,CCGGGAGTCG,1.06 ± 0.017
15,GGCGGTAGAG,1.012 ± 0.0091
16,TTGTTCCAGC,0.985 ± 0.047
17,AAGAAGGGAT,0.953 ± 0.016
18,GAGACGGGGA,0.982 ± 0.021
19,GACTCTATGG,0.943 ± 0.11
20,TTCGATATTT,0.982 ± 0.017
21,GAGATTGGTG,1 ± 0.031
22,TTTTGTGAGA,1.026 ± 0.0075
23,GGAGGGGTGC,1.04 ± 0.032

row,Sequence,switch fluorescence ratio
1,TTTTGGCTTA,0.9945 ± 0.007
2,TAAAGGCTAC,1.17 ± 0.2
3,TTCAATTTTT,0.997 ± 0.021
4,ATTTGAGTTG,0.965 ± 0.01
5,TATCGACGTT,0.97 ± 0.038
6,AGATGAGGCG,1 ± 0.068
7,AGTAAGTCTG,0.969 ± 0.02
8,CTGAACAGTA,1.02 ± 0.033
9,TTCGGTTGGT,1.01 ± 0.029
10,GATACTGTGA,0.995 ± 0.023
11,ATGGTGTTTT,0.9803 ± 0.008
12,AAGACGGATT,0.9945 ± 0.0066
13,CGAAAGATGT,0.9857 ± 0.0025
14,AGCTTCTAAA,0.976 ± 0.022
15,TCAGGTTTTT,1.13 ± 0.22
16,CTCTCTAGCA,1.4 ± 0.015
17,ATTTTATCTC,1.22 ± 0.27
18,TGTAGTTGTG,1.02 ± 0.061
19,TGGGGATCGC,0.983 ± 0.034
20,TTTGAAGCAA,4.2 ± 3.2
21,TCTGTTAATT,1.01 ± 0.014
22,ATTGCGACAC,1.23 ± 0.035
23,TTTGTAACCT,1.74 ± 0.035

row,Sequence,switch fluorescence ratio
1,TTGGGGTGCG,0.995 ± 0.011
2,AGGTAGAATG,0.998 ± 0.0045
3,CGTTCTAGTG,0.974 ± 0.011
4,AAGGGGTGAA,0.989 ± 0.017
5,TCCTGTCTTT,1.01 ± 0.014
6,AATTTTGTTA,0.976 ± 0.043
7,ATTACCCTCG,1.02 ± 0.035
8,TTACCGAGGT,1.03 ± 0.031
9,TACATAATTA,0.993 ± 0.021
10,CTTGGGGGAA,0.964 ± 0.013
11,GAGTATGGGT,1 ± 0.021
12,GGAAAAAATA,1.001 ± 0.0072
13,AGAGGCAGCT,1.03 ± 0.046
14,CGGCGAAGGG,0.961 ± 0.014
15,GTGGATTGGT,0.974 ± 0.013
16,ATGGTCTGGG,0.971 ± 0.011
17,CTGGGTATGA,1.01 ± 0.024
18,ACCGCTTTTT,1.11 ± 0.024
19,TAGGGGTTAT,0.995 ± 0.015
